# Values of other authors, collected in article PMC10968392.
# pKd: −log10 of the molar value.
# Biological target: SARS-CoV-2 spike protein (cited Kd) (SARS-CoV-2) (UniProt P0DTC2)
# Test: not stated here (previous study)
# Details: PBSMCT: DPBS, 1 mM MgCl2, 1 mM CaCl2, 0.025% Tween-20; 25 °C, 1 h; pH not stated
sequence,measurement,value
GAACATTGGCGTCCGTGAGCAGCTCGTGGTTGTTTGCTTGTATACTTTTGTGGTTTATCTTGTTTCTGATCACTTCCTCAAACGCCCAA [SpS1-C4 aptamer],pKd,8.74
GAACATTGGCGTCCGTGAGTGAGACCATAGTCCAGCGAACTAAACCTACCCTAAAGGGCAAGGAAGACGGGCACTTCCTCAAACGCCCAA [SpS1-C1 aptamer],pKd,8.83
